# Source: the RNAGym collection of RNA variant scans (doi:10.7554/elife.90254)
# B1: OR4K15 (parent)
# chain: GUUAACGGUCAUAGGCCAUGGAAACUAGGAGCACCAUUUCGCUGCCAGUGAAGAAAUGAACAAAGAAAAUCUGGGCCAGGCAGGCAUCAAAAGAAAUAGUCUUGCGCUCAACCAGAAAGUCUGUAAUCAUUUUAAGGGUA
# Variants of: B1
# Experiment: self-cleavage, relative activity (ratio to wild type); higher = more cleavage; in vitro, sequencing; the parent is a self-cleaving ribozyme
row,Variant,self-cleavage
1,GCUAACGGUCAUAGGCCAUGGAAACUAGGAGCACCAUUUCGCUGCCAGUGAAGAAAUGAGCAAAGAAAAUCUGGGCCAGGCAGGCAUCAAAAGAAAUAGUCUUGCGCUCAACCAGAAAGUCUGUAAUCAUUUUAAGGGUA [U2C A60G],1.02
2,GCUAACGGUCAUAGGCCAUGGAAACUAGGAGCACCAUUUCGCUGCCAGUGAAGAAAUGAACAAAGAAAAUCUGGGCCGGGCAGGCAUCAAAAGAAAUAGUCUUGCGCUCAACCAGAAAGUCUGUAAUCAUUUUAAGGGUA [U2C A78G],0.21
3,GCUAACGGUCAUAGGCCAUGGAAACUAGGAGCACCAUUUCGCUGCCAGUGAAGAAAUGAACAAAGAAAAUCUGGGCCAGGCAGGCAUCACAAGAAAUAGUCUUGCGCUCAACCAGAAAGUCUGUAAUCAUUUUAAGGGUA [U2C A90C],1.23
4,GCUAACGGUCAUAGGCCAUGGAAACUAGGAGCACCAUUUCGCUGCCAGUGAAGAAAUGAACAAAGAAAAUCUGGGCCAGGCAGGCAUCAGAAGAAAUAGUCUUGCGCUCAACCAGAAAGUCUGUAAUCAUUUUAAGGGUA [U2C A90G],0.54
5,GCUAACGGUCAUAGGCCAUGGAAACUAGGAGCUCCAUUUCGCUGCCAGUGAAGAAAUGAACAAAGAAAAUCUGGGCCAGGCAGGCAUCAAAAGAAAUAGUCUUGCGCUCAACCAGAAAGUCUGUAAUCAUUUUAAGGGUA [U2C A33U],1.24
6,GCUAACGGUCAUAGGCCAUGGAAACUAGGAGCGCCAUUUCGCUGCCAGUGAAGAAAUGAACAAAGAAAAUCUGGGCCAGGCAGGCAUCAAAAGAAAUAGUCUUGCGCUCAACCAGAAAGUCUGUAAUCAUUUUAAGGGUA [U2C A33G],0.74
7,GCUAACGGUCAUAGGCCAUGGAAACUAGGAGCACCAUUUCGCUGCCAGUGAAGAAAUGAACAAAGUAAAUCUGGGCCAGGCAGGCAUCAAAAGAAAUAGUCUUGCGCUCAACCAGAAAGUCUGUAAUCAUUUUAAGGGUA [U2C A66U],0.2
8,GCUAACGGUCAUAGGCCAUGGAAACUAGGAGCACCAUUUCGCUGCCAGUGAAGAAAUGAACAAAGGAAAUCUGGGCCAGGCAGGCAUCAAAAGAAAUAGUCUUGCGCUCAACCAGAAAGUCUGUAAUCAUUUUAAGGGUA [U2C A66G],1.45
9,GCUAACGGUCAUAGGCCAUGGAAACUAGGAGCACCAUUUCGCUGCCAGUGAAGAAAUGGACAAAGAAAAUCUGGGCCAGGCAGGCAUCAAAAGAAAUAGUCUUGCGCUCAACCAGAAAGUCUGUAAUCAUUUUAAGGGUA [U2C A59G],0.91
10,GCUAACGGUCAUAGGCCAUGGAAACUAGGAGCACCAUUUCGCUGCCAGUGAAGAAAUGUACAAAGAAAAUCUGGGCCAGGCAGGCAUCAAAAGAAAUAGUCUUGCGCUCAACCAGAAAGUCUGUAAUCAUUUUAAGGGUA [U2C A59U],0.98
11,GCUAACGGUCAUAGGCCAUGGAAACUAGGAGCACCAUUUCGCUGCCAGUGAAGAAAUGAACAAAGAAAAUCUGGGCCAGGCAGGCAUCAAAAGGAAUAGUCUUGCGCUCAACCAGAAAGUCUGUAAUCAUUUUAAGGGUA [U2C A94G],1.08
12,GCUAACGGUCAUAGGCCAUGGAAACUAGGAGCACCAUUUCGCUGCCAGUGAAGAAAUGAACAAAGAAAAUCUGGGCCAGGCAGGCAUCAAAAGUAAUAGUCUUGCGCUCAACCAGAAAGUCUGUAAUCAUUUUAAGGGUA [U2C A94U],1.48
13,GCUAACGGUCAUAGGCCAUGGAAACUGGGAGCACCAUUUCGCUGCCAGUGAAGAAAUGAACAAAGAAAAUCUGGGCCAGGCAGGCAUCAAAAGAAAUAGUCUUGCGCUCAACCAGAAAGUCUGUAAUCAUUUUAAGGGUA [U2C A27G],0.85
14,GCUAACGGUCAUAGGCCAUGGAAACUAGGAGCACCAUUUCGCUGCCAGUGAAGAAAUGAACAAAGAAAAUCUGGGCCAGGCAGGCAUCAAGAGAAAUAGUCUUGCGCUCAACCAGAAAGUCUGUAAUCAUUUUAAGGGUA [U2C A91G],1.08
15,GCUAACGGUCAUAGGCCAUGGAAACUAGGAGCACCAUUUCGCUGCCAGUGAAGAAAUGAACAAAGAAAAUCUGGGCCAGGCAGGCAUCAAUAGAAAUAGUCUUGCGCUCAACCAGAAAGUCUGUAAUCAUUUUAAGGGUA [U2C A91U],0.81
16,GCUAACGGUCAUAGGCCUUGGAAACUAGGAGCACCAUUUCGCUGCCAGUGAAGAAAUGAACAAAGAAAAUCUGGGCCAGGCAGGCAUCAAAAGAAAUAGUCUUGCGCUCAACCAGAAAGUCUGUAAUCAUUUUAAGGGUA [U2C A18U],0.37
17,GCUAACGGUCAUAGGCCGUGGAAACUAGGAGCACCAUUUCGCUGCCAGUGAAGAAAUGAACAAAGAAAAUCUGGGCCAGGCAGGCAUCAAAAGAAAUAGUCUUGCGCUCAACCAGAAAGUCUGUAAUCAUUUUAAGGGUA [U2C A18G],0.6
18,GCUAACGGUCAUAGGCCAUGGAAACUAGGAGCACCUUUUCGCUGCCAGUGAAGAAAUGAACAAAGAAAAUCUGGGCCAGGCAGGCAUCAAAAGAAAUAGUCUUGCGCUCAACCAGAAAGUCUGUAAUCAUUUUAAGGGUA [U2C A36U],1.11
19,GCUAACGGUCAUAGGCCAUGGAAACUAGGAGCACCGUUUCGCUGCCAGUGAAGAAAUGAACAAAGAAAAUCUGGGCCAGGCAGGCAUCAAAAGAAAUAGUCUUGCGCUCAACCAGAAAGUCUGUAAUCAUUUUAAGGGUA [U2C A36G],1.25
20,GAUAACGGUCAUAGGCCAUGGAAACUAGGAGCACCAUUUCGCUGCCAGUGAAGAAAUGAACAAAGAAAAUCUGGGCCAGGCAGGCAUCAAAAGAAAUAGUCUUGCGCUCAACCAGAAAGUCUGUAAUCAUCUUAAGGGUA [U2A U131C],0.69
21,GAUAACGGUCAUAGGCCAUGGAAACUAGGAGCACCAUUUCGCUGCCAGUGAAGAAAUGAACAAAGAAAAUCUGGGCCAGGCAGGCAUCAAAAGAAAUAGUCUUGCGCUCAACCAGAAAGUCCGUAAUCAUUUUAAGGGUA [U2A U122C],0.72

row,Variant,self-cleavage
1,GAUAACGGUCAUAGGCCAUGGAAACUAGGAGCACCAUUUCGCUGCCAGUGAAGAAAUGAACAAAGAAAAUCUGGGCCAGGCAGGCAUCAAAAGAAAUAGUCUUGCGCUCAACCAGAAAGUCUGUAAUCACUUUAAGGGUA [U2A U130C],0.85
2,GCUAACGGUCAUAGGCCAUGGAAACUAGGAGCACCAUUUCGCUGCCAGUGAAGAAAUGAACCAAGAAAAUCUGGGCCAGGCAGGCAUCAAAAGAAAUAGUCUUGCGCUCAACCAGAAAGUCUGUAAUCAUUUUAAGGGUA [U2C A62C],1.39
3,GCUAACGGUCAUAGGCCAUGGAAACUAGGAGCACCAUUUCGCUGCCAGUGAAGAAAUGAACGAAGAAAAUCUGGGCCAGGCAGGCAUCAAAAGAAAUAGUCUUGCGCUCAACCAGAAAGUCUGUAAUCAUUUUAAGGGUA [U2C A62G],0.36
4,GCUAACGGUCAUAGGCCAUGGAAACUAGGAGCACCAUUUCGCUGCCAGUGAAGAAGUGAACAAAGAAAAUCUGGGCCAGGCAGGCAUCAAAAGAAAUAGUCUUGCGCUCAACCAGAAAGUCUGUAAUCAUUUUAAGGGUA [U2C A56G],1.12
5,GCUAACGGUCGUAGGCCAUGGAAACUAGGAGCACCAUUUCGCUGCCAGUGAAGAAAUGAACAAAGAAAAUCUGGGCCAGGCAGGCAUCAAAAGAAAUAGUCUUGCGCUCAACCAGAAAGUCUGUAAUCAUUUUAAGGGUA [U2C A11G],1.16
6,GCUAACGGUCAUAGGCCAUGGAAACUAGGAGCACCAUUUCGCUGCCAGUGAAGAAAUGAACAAAGAAAGUCUGGGCCAGGCAGGCAUCAAAAGAAAUAGUCUUGCGCUCAACCAGAAAGUCUGUAAUCAUUUUAAGGGUA [U2C A69G],0.91
7,GCUAACGGUCAUAGGCCAUGGAAACUAGGUGCACCAUUUCGCUGCCAGUGAAGAAAUGAACAAAGAAAAUCUGGGCCAGGCAGGCAUCAAAAGAAAUAGUCUUGCGCUCAACCAGAAAGUCUGUAAUCAUUUUAAGGGUA [U2C A30U],0.98
8,GCUAACGGUCAUAGGCCAUGGAAACUAGGCGCACCAUUUCGCUGCCAGUGAAGAAAUGAACAAAGAAAAUCUGGGCCAGGCAGGCAUCAAAAGAAAUAGUCUUGCGCUCAACCAGAAAGUCUGUAAUCAUUUUAAGGGUA [U2C A30C],1.44
9,GCUAACGGUCAUAGGCCAUGGAAUCUAGGAGCACCAUUUCGCUGCCAGUGAAGAAAUGAACAAAGAAAAUCUGGGCCAGGCAGGCAUCAAAAGAAAUAGUCUUGCGCUCAACCAGAAAGUCUGUAAUCAUUUUAAGGGUA [U2C A24U],1.45
10,GCUAACGGUCAUAGGCCAUGGAACCUAGGAGCACCAUUUCGCUGCCAGUGAAGAAAUGAACAAAGAAAAUCUGGGCCAGGCAGGCAUCAAAAGAAAUAGUCUUGCGCUCAACCAGAAAGUCUGUAAUCAUUUUAAGGGUA [U2C A24C],1.16
11,GCUAACGGUCAUAGGCCAUGGAAACUAGGAGCACCAUUUCGCUGCCAGUGAGGAAAUGAACAAAGAAAAUCUGGGCCAGGCAGGCAUCAAAAGAAAUAGUCUUGCGCUCAACCAGAAAGUCUGUAAUCAUUUUAAGGGUA [U2C A52G],1.19
12,GCUAACGGUCAUAGGCCAUGGAAACUAGGAGCACCAUUUCGCUGCCAGUGACGAAAUGAACAAAGAAAAUCUGGGCCAGGCAGGCAUCAAAAGAAAUAGUCUUGCGCUCAACCAGAAAGUCUGUAAUCAUUUUAAGGGUA [U2C A52C],1.25
13,GCUAACGGUCAUAGGCCAUGGAAACUAGGAGCACCAUUUCGCUGCCAGUGAAGAAAUGAACAAAGAAAAUCUGGGCCAGGCAGGCAUCAAAAGAACUAGUCUUGCGCUCAACCAGAAAGUCUGUAAUCAUUUUAAGGGUA [U2C A96C],1.85
14,GCUAACGGUCAUAGGCCAUGGAUACUAGGAGCACCAUUUCGCUGCCAGUGAAGAAAUGAACAAAGAAAAUCUGGGCCAGGCAGGCAUCAAAAGAAAUAGUCUUGCGCUCAACCAGAAAGUCUGUAAUCAUUUUAAGGGUA [U2C A23U],1.22
15,GCUAUCGGUCAUAGGCCAUGGAAACUAGGAGCACCAUUUCGCUGCCAGUGAAGAAAUGAACAAAGAAAAUCUGGGCCAGGCAGGCAUCAAAAGAAAUAGUCUUGCGCUCAACCAGAAAGUCUGUAAUCAUUUUAAGGGUA [U2C A5U],1.16
16,GCUAACGGUCAUUGGCCAUGGAAACUAGGAGCACCAUUUCGCUGCCAGUGAAGAAAUGAACAAAGAAAAUCUGGGCCAGGCAGGCAUCAAAAGAAAUAGUCUUGCGCUCAACCAGAAAGUCUGUAAUCAUUUUAAGGGUA [U2C A13U],1.78
17,GAUAACGGUCAUAGGCCAUGGAAACUAGGAGCACCAUUUCGCUGCCAGUGAAGAAAUGAACAAAGAAAAUCUGGGCCAGGCAGGCAUCAAAAGAAAUAGUCUUGCGCUCAACCAGAAAGUCUGUAAUCAUUUUAAGGGAA [U2A U139A],1.04
18,GAUAACGGUCAUAGGCCAUGGAAACUAGGAGCACCAUUUCGCUGCCAGUGAAGAAAUGAACAAAGAAAAUCUGGGCCAGGCAGGCAUCAAAAGAAAUAGUCUUGCGCUCAACCAGAAAGUCUGUAAUCAUUUUAAGGGGA [U2A U139G],0.81
19,GCUAACGGUCAUAGGCCAUGGAAACUAGGAGCACCAUUUCGCUGCCAGUGAAGAAAUGAACAAGGAAAAUCUGGGCCAGGCAGGCAUCAAAAGAAAUAGUCUUGCGCUCAACCAGAAAGUCUGUAAUCAUUUUAAGGGUA [U2C A64G],1.48
20,GCUAACGGUCAUAGGCCAUGGAAACUAGGAGCACCAUUUCGCUGCCAGUGAAGAAAUGAACAGAGAAAAUCUGGGCCAGGCAGGCAUCAAAAGAAAUAGUCUUGCGCUCAACCAGAAAGUCUGUAAUCAUUUUAAGGGUA [U2C A63G],1.12
